Measurements: PMC2064389 (The Journal of Cell Biology, 2006)
Positions count from the first letter of the chain named. Names may count otherwise. Where two headings read alike, the source gives them in different places.

Key:
Assay in all cases: liposome flotation
[1] = biological target: mArf1p (wild type or Q71L not told) (yeast) (UniProt P11076)
Chs5–Chs6[all] complex [2] = biological target: T1, Chs5–Chs6[all] complex (yeast, UniProt Q12114 1-671; P40955 1-746; Q05029 1-724; Q08754 1-746; P36122 1-765)
[3] = biological target: Complex of Chs5p with two paralogues (Chs6p and Bch1p) (yeast, UniProt Q12114 1-671; P40955 1-746; Q05029 1-724)
Chs5–Chs6[all] complex [4] = biological target: T1, Chs5–Chs6[all] complex; remark: listed apart in the source

Sequence of Complex of Chs5p with two paralogues (Chs6p and Bch1p) (Q12114 whole entry, chain 1 of 3): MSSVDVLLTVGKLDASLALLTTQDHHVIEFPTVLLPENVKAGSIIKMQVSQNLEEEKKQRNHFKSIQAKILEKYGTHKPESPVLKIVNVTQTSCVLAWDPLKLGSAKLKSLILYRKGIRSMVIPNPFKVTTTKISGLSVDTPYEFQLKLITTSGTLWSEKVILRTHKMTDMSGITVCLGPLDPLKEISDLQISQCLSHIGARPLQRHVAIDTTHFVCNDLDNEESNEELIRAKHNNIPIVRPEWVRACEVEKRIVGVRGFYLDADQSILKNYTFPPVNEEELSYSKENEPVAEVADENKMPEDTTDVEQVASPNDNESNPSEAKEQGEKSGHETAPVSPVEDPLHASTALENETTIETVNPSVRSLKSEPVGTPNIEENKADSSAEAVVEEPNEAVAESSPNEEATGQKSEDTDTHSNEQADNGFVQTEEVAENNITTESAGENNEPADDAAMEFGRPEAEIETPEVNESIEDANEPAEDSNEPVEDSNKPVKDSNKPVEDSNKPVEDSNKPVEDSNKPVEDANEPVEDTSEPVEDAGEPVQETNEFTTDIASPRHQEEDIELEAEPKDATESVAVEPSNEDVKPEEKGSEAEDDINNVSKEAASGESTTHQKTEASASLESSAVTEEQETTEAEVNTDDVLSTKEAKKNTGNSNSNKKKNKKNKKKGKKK
Sequence of Complex of Chs5p with two paralogues (Chs6p and Bch1p) (P40955 whole entry, chain 2 of 3): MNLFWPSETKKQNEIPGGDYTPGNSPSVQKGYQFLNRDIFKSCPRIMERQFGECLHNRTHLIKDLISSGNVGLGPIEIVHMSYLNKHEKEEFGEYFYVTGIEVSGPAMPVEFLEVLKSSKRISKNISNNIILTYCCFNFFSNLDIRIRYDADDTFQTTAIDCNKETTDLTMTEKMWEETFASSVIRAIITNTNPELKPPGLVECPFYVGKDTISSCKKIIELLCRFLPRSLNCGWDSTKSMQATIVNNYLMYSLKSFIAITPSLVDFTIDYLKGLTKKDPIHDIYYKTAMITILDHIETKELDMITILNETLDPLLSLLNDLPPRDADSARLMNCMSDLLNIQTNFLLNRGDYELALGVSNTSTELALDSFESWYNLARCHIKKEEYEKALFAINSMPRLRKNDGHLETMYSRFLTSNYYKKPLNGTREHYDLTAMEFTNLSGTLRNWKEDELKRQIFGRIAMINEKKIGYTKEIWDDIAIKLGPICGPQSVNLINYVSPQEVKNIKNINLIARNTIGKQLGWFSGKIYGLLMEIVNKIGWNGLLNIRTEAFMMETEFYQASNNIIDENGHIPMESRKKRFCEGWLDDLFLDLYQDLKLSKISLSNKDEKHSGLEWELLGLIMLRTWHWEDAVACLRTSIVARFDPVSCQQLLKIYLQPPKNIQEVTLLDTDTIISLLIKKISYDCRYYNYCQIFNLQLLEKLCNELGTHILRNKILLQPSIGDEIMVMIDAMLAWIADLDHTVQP
Sequence of Complex of Chs5p with two paralogues (Chs6p and Bch1p) (Q05029 whole entry, chain 3 of 3): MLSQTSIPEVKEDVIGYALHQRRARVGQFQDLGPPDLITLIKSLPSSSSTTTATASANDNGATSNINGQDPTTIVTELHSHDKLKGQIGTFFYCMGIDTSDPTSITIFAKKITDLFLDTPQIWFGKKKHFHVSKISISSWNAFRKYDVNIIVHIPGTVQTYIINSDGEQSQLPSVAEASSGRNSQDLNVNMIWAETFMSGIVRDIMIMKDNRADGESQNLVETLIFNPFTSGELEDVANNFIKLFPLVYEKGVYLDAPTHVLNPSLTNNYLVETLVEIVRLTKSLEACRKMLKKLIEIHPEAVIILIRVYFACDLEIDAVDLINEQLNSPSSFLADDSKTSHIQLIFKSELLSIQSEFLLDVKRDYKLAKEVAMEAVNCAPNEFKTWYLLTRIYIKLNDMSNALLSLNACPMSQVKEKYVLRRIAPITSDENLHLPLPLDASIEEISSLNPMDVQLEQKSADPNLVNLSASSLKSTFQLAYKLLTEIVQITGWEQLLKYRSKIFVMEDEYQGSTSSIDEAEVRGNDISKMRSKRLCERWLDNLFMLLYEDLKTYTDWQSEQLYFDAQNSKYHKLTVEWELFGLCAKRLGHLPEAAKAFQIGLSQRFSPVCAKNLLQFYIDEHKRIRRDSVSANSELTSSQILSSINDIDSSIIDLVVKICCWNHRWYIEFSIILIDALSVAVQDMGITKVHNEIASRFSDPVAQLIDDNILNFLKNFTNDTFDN

Molecule: Chs5–Chs6[all] complex (from UniProt Q12114 1-671; P40955 1-746; Q05029 1-724; Q08754 1-746; P36122 1-765)
- concentration of Chs5–Chs6[all] at which binding was saturated (∼1 μM mArf1p) [1]: 0.5 µM
- stoichiometry N (Arf1 per Chs5–Chs6[all] complex (molar)) [1]: 7.5

B1: Recombinant myristoylated Arf1p (Q71L; GTPase deficient) (natural protein, yeast, UniProt P11076 1-181, looked up)
chain: MGLFASKLFSNLFGNKEMRILMVGLDGAGKTTVLYKLKLGEVITTIPTIGFNVETVQYKNISFTVWDVGGLDRIRSLWRHYYRNTEGVIFVVDSNDRSRIGEAREVMQRMLNEDELRNAAWLVFANKQDLPEAMSAAEITEKLGLHSIRNRPWFIQATCATSGEGLYEGLEWLSNSLKNST
modifications: N-myristoylated (>75% of the protein)
- binding result (Chs5–Chs6[all] complex [2]): binds

B2: Myristoylated wild-type Arf1p (natural protein, yeast, UniProt P11076 1-181, looked up)
chain: B1 chain with L71Q
modifications: N-myristoylated (>75% of the protein)
- binding result [3]: binds
- binding result (Chs5–Chs6[all] complex [4]): binds
